Test results reported in publication doi:10.1101/2025.08.03.668247, “The structure of Egalitarian in complex with the K10 mRNA localization signal reveals a modular binding surface required for function”.
Numbering of substitutions follows the chain as printed.

Tests used:
Assay in all cases: fluorescence anisotropy; FA: 20 mM HEPES-NaOH pH 7.5, 100 mM NaCl, 10% glycerol, 20 C, 10 nM FAM-RNA; competition: 150 nM Egl512-819 + 10 nM FAM-K10 TLS, same buffer
Conditions in all cases: protein: recombinant; tags: N-terminal GST; label: 5'-6-FAM; hairpin with two bulges
K751E = biological target: T1, K751E (Drosophila melanogaster, UniProt Q9W1K4 512-819, K751E)
T1 sequence: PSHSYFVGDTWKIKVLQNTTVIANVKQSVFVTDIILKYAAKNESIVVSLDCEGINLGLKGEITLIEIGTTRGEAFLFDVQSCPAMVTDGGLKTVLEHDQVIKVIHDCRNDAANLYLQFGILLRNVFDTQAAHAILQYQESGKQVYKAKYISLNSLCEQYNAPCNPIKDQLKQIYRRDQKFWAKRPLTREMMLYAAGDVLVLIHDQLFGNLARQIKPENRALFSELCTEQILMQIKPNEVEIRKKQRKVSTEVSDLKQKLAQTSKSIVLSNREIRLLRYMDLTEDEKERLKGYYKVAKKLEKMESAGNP

K754A = biological target: T2, K754A (Drosophila melanogaster, UniProt Q9W1K4 512-819, K754A)
T2 sequence: T1 sequence with E240K, K243A

R788E = biological target: T3, R788E (Drosophila melanogaster, UniProt Q9W1K4 512-819, R788E)
T3 sequence: T1 sequence with E240K, R277E

K755A = biological target: T4, K755A (Drosophila melanogaster, UniProt Q9W1K4 512-819, K755A)
T4 sequence: T1 sequence with E240K, K244A

Egl512-931 = biological target: T5, Egl512-931 (Drosophila melanogaster, UniProt Q9W1K4 512-931)
T5 sequence: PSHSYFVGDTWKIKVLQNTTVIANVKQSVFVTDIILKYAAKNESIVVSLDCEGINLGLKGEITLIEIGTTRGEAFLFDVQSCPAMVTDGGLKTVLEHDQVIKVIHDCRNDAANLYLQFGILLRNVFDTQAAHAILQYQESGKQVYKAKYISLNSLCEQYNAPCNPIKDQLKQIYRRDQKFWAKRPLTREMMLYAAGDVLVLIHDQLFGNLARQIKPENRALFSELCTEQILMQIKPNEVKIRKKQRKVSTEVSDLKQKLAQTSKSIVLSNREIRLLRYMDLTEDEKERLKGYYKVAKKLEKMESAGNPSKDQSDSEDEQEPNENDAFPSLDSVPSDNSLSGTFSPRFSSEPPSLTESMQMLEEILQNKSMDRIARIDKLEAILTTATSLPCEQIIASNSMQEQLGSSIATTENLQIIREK

L-EHD (Egl743-819) = biological target: T6, L-EHD (Egl743-819) (Drosophila melanogaster, UniProt Q9W1K4 743-819)
T6 sequence: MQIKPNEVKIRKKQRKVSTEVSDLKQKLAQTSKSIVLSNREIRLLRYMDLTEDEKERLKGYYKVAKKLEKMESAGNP

## CUUGAUUGUAUUUUUAAAUUAAUUCUUAAAAACUACAAAUUAAG (structured_RNA) [K10 TLS (FAM)]
K751E
  Kd: 139 ± 28 nM
K754A
  Kd: 212 ± 8 nM
R788E
  Kd: 313 ± 23 nM
K755A
  Kd: 131 ± 5 nM
Egl512-931
  Kd: 164 ± 7 nM
L-EHD (Egl743-819)
  Kd: 262 ± 9 nM
